Laboratory results reported in paper PMC3299299, “Recombinant Expression and Characterization of Human and Murine ACE2: Species-Specific Activation of the Alternative Renin-Angiotensin-System” (International Journal of Hypertension, 2012).

Assays:
Assay type in all cases: biochemical
Ang 1–10 = experiment: In vitro kinetic assay, Ang 1–10 cleavage to Ang 1–9, HPLC quantification
Procedure: (§1) Enzyme reactions were started by adding a defined amount of enzyme to substrate dilutions in MES-buffer (50 mM MES, 300 mM NaCl, 10 μM ZnCl2, 0.01% Brij-35, pH 6.5) which were previously equilibrated at 37°C. Aliquots of the reaction mixes were taken every 10 minutes and stopped by addition of 0.5 M EDTA to a final concentration of 100 mM before HPLC-based quantification of peptides.
(§2) The concentration of peptides in enzymatic reactions was quantified by detection of peaks eluted from the HPLC column using an in-line diode array detector. Chromatography was performed by running a gradient on a reversed-phase matrix (Source 5RPC, 4.6×150 mm, 5 μm) with 0.08% H3PO4 in water as mobile phase A and 40% acetonitrile in water and 0.08% H3PO4 as mobile phase B. The optical density at 280 nm was recorded inline for all eluting peaks, and peptide concentrations were calculated via calibration curves for each individual peptide.
(§3) The turnover rates for natural ACE2 substrates were determined by in vitro incubation with excess amounts of substrate followed by reversed-phase HPLC analysis. […] Each time point was analyzed in true triplicates and standard deviations are given in the graphs together with linear regressions of the measured values.

Ang 1–8 = experiment: In vitro kinetic assay, Ang 1–8 cleavage to Ang 1–7, HPLC quantification; details: ratio of k cat of the same enzyme for the two substrates
Procedure: as §1, §2
as §3, with “analysis. […] The resulting time courses are shown in the graphs.” for “analysis.”

[1] = tested on: human RAS in blood plasma; experiment: Ex vivo incubation of renin-spiked human plasma, RAS-Fingerprinting by LC-MS/MS; details: human plasma + 100 pg/mL recombinant human renin, 10 μM Lisinopril present, without or with 5 μg/mL enzyme, 10 min 37°C (Fig 3b); 0 = below quantification limit (2 pg/mL plasma)
Procedure: Anticoagulated blood was collected from healthy volunteers, and plasma was separated by 10 minutes centrifugation at 3000 RCF. […] After 10 minutes of incubation at 37°C, in the presence or absence of Lisinopril (Sigma), samples were chilled on ice and immediately subjected to LC-MS/MS analysis.
Plasma samples were spiked with 100 pg/mL stable-isotope-labeled internal standards and subjected to solid-phase extraction using Sep-Pak cartridges (Waters) according to manufacturers protocol. Following elution and solvent evaporation, samples were reconstituted in 50 μL 50% acetonitrile/0.1% formic acid and subjected to LC-MS/MS analysis using a reversed-phase analytical column (Luna C18, Phenomenex) using a gradient ranging from 10% acetonitrile/0.1% formic acid to 70% acetonitrile/0.1% formic acid in 9 minutes. The eluate was analyzed in line with a QTRAP-4000 mass spectrometer (AB Sciex) operated in the MRM mode using dwell times of 25 msec at a cone voltage of 4000 volts and a source temperature of 300°C. For each peptide and corresponding internal standards, two different mass transitions were measured. Angiotensin peptide concentrations were calculated by relating endogenous peptide signals to internal standard signals provided that integrated signals achieved a signal-to-noise ratio above 10.
RAS-Fingerprints were measured by LC-MS/MS as indicated in Section 2. Samples were incubated in the absence (a) or presence (b) of 10 μM of the ACE inhibitor Lisinopril. In this figure, the diameter of the spheres reflects the concentration of the respective peptide metabolite, which is also given in pg/mL next to each individual sphere. 0 pg/mL indicates concentrations below quantification limits, which are defined by a signal-to-noise ratio below 10. Furthermore, the amino acid sequence of each angiotensin metabolite is schematically given in brackets beside the corresponding sphere. The sequence annotation is based on the decapeptide Angiotensin I (1–10) which is N- or C-terminally cleaved by the indicated proteases. […]

B1: rmACE2: extracellular domain of murine ACE2 recombinantly expressed in CHO cells (protein)
chain: QSLTEENAKTFLNNFNQEAEDLSYQSSLASWNYNTNITEENAQKMSEAAAKWSAFYEEQSKTAQSFSLQEIQTPIIKRQLQALQQSGSSALSADKNKQLNTILNTMSTIYSTGKVCNPKNPQECLLLEPGLDEIMATSTDYNSRLWAWEGWRAEVGKQLRPLYEEYVVLKNEMARANNYNDYGDYWRGDYEAEGADGYNYNRNQLIEDVERTFAEIKPLYEHLHAYVRRKLMDTYPSYISPTGCLPAHLLGDMWGRFWTNLYPLTVPFAQKPNIDVTDAMMNQGWDAERIFQEAEKFFVSVGLPHMTQGFWANSMLTEPADGRKVVCHPTAWDLGHGDFRIKMCTKVTMDNFLTAHHEMGHIQYDMAYARQPFLLRNGANEGFHEAVGEIMSLSAATPKHLKSIGLLPSDFQEDSETEINFLLKQALTIVGTLPFTYMLEKWRWMVFRGEIPKEQWMKKWWEMKREIVGVVEPLPHDETYCDPASLFHVSNDYSFIRYYTRTIYQFQFQEALCQAAKYNGSLHKCDISNSTEAGQKLLKMLSLGNSEPWTKALENVVGARNMDVKPLLNYFQPLFDWLKEQNRNSFVGWNTEWSPYADQSIKVRISLKSALGANAYEWTNNEMFLFRSSVAYAMRKYFSIIKNQTVPFLEEDVRVSDLKPRVSFYFFVTSPQNVSDVIPRSEVEDAIRMSRGRINDVFGLNDNSLEFLGIHPTLEPPYQPPVT
- Ang 1–10-related turnover rate of rmACE2 as share of the rate for rhACE2 (Ang 1–10): 7%
- k cat, Ang 1–10 ≥ Ang 1–9 (Ang 1–10; […] enzyme, 65 μM Ang 1–10, MES buffer pH 6.5, 37°C, HPLC, mean of substrate degradation and product formation rates related to enzyme concentration, triplicates): 0.0013 s⁻¹
- turnover number for Ang 1–8 compared to Ang 1–10 (Ang 1–8): 492 fold
- Ang (1–7) concentration in plasma [1]: < 2 pg/mL
